Target: clade B MN gp41 monomer (HIV-1 clade B, strain MN) (UniProt P05877)
Experiment: endpoint ELISA, plate-coated MN gp41

Chain of UniProt P05877 (P05877 514-856 limits assumed): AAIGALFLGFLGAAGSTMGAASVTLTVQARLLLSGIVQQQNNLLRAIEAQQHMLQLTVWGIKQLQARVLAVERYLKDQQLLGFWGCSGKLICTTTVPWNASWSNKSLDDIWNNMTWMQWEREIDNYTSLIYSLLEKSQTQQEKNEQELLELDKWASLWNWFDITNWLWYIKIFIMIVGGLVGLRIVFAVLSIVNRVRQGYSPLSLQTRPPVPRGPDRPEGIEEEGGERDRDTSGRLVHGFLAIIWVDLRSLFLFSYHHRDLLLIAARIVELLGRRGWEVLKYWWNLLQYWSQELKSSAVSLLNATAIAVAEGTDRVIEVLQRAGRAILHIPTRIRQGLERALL

240-D (antibody)
endpoint titer: 78.1 ng/mL

— patent US20220154170A1
